Two molecules from article PMC11417181 can be followed below.

Holding throughout (conditions): remark: other sources report otherwise
The target of experiment [1] is T1, fully deglycosylated complement factor H (200 h PNGase F) (human), P08603.
T1 chain: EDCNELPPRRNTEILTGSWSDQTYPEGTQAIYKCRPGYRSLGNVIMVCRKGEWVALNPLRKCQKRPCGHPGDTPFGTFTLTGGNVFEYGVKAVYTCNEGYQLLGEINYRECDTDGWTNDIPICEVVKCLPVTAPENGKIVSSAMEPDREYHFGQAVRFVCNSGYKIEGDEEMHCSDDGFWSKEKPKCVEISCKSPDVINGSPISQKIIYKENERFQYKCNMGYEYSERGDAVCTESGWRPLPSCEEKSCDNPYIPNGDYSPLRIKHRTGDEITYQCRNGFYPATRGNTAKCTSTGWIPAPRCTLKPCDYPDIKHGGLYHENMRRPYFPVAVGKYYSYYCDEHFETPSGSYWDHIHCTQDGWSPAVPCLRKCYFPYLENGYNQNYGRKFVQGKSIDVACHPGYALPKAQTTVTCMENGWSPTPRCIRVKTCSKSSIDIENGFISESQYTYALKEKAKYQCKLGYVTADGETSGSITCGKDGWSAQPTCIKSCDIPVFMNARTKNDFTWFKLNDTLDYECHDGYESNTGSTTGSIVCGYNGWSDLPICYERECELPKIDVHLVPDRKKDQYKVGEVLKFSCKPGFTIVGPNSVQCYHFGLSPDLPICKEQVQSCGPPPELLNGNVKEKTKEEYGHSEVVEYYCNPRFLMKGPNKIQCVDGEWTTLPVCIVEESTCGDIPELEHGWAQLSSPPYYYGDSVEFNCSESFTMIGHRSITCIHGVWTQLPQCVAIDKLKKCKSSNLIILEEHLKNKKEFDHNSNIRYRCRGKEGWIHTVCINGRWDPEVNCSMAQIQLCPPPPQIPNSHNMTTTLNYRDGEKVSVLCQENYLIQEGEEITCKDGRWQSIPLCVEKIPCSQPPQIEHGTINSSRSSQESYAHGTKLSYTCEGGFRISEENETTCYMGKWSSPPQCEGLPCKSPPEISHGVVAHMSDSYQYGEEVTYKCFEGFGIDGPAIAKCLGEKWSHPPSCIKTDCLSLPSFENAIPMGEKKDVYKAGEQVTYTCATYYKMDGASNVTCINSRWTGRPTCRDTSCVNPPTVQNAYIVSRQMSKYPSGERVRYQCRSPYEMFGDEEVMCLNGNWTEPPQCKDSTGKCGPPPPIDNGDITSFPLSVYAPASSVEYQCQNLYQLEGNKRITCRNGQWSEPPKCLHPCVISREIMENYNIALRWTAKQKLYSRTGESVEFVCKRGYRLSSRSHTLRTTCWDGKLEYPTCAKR
Kind of experiment: AUC; sedimentation velocity of full-length CFH, 20 °C, 40,000 rpm, Hepes buffer, 0.2 to 1.8 mg/ml, c(s) analysis in SEDFIT, proportions from peak integration; monomer to dimer.

Experiment [2] addresses T2, complement factor H, native glycosylated, full-length, purified from human plasma (human), P08603.
T2 chain: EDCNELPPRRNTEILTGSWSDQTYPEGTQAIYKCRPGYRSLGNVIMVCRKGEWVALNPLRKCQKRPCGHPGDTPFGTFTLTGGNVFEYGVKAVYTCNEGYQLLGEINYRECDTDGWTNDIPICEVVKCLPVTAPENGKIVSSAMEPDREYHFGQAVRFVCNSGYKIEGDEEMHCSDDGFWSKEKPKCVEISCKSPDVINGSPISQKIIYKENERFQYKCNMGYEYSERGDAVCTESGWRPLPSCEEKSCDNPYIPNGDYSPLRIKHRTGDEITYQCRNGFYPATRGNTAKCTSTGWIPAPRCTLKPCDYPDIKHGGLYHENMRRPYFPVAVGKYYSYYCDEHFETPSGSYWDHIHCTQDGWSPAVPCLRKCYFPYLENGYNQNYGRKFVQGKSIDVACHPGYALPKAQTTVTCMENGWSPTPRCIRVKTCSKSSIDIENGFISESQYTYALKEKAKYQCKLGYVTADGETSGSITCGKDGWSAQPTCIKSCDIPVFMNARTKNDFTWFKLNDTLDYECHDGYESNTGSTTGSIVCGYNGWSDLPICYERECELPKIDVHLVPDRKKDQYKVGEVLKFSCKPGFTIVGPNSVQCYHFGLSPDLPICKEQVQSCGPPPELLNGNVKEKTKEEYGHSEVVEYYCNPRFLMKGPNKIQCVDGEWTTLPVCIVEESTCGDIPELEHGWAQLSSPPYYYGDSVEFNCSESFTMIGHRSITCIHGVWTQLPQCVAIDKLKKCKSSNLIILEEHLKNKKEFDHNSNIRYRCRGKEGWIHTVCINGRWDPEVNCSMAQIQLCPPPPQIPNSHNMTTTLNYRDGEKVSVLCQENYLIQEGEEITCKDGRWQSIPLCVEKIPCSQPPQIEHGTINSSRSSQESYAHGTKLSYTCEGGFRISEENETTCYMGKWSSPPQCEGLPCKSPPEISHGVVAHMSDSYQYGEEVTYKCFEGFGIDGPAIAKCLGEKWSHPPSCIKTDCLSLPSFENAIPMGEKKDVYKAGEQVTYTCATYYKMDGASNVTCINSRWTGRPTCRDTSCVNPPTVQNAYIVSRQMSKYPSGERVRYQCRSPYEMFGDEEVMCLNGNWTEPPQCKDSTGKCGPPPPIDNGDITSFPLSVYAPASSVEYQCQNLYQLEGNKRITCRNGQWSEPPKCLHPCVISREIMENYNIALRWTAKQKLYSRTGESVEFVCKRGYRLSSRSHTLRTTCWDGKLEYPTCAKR
The experiment can be described thus: SPR; Biacore X100, biotinylated glycosylated CFH on a streptavidin chip (781 RU), CFH preparations flowed at 0.01 to 1.8 μM, Hepes buffer, single-cycle, 1:1 steady-state affinity fit.

Experiment [3] concerns the target T3, partially deglycosylated complement factor H (100 h PNGase F) (human), P08603.
T3 chain: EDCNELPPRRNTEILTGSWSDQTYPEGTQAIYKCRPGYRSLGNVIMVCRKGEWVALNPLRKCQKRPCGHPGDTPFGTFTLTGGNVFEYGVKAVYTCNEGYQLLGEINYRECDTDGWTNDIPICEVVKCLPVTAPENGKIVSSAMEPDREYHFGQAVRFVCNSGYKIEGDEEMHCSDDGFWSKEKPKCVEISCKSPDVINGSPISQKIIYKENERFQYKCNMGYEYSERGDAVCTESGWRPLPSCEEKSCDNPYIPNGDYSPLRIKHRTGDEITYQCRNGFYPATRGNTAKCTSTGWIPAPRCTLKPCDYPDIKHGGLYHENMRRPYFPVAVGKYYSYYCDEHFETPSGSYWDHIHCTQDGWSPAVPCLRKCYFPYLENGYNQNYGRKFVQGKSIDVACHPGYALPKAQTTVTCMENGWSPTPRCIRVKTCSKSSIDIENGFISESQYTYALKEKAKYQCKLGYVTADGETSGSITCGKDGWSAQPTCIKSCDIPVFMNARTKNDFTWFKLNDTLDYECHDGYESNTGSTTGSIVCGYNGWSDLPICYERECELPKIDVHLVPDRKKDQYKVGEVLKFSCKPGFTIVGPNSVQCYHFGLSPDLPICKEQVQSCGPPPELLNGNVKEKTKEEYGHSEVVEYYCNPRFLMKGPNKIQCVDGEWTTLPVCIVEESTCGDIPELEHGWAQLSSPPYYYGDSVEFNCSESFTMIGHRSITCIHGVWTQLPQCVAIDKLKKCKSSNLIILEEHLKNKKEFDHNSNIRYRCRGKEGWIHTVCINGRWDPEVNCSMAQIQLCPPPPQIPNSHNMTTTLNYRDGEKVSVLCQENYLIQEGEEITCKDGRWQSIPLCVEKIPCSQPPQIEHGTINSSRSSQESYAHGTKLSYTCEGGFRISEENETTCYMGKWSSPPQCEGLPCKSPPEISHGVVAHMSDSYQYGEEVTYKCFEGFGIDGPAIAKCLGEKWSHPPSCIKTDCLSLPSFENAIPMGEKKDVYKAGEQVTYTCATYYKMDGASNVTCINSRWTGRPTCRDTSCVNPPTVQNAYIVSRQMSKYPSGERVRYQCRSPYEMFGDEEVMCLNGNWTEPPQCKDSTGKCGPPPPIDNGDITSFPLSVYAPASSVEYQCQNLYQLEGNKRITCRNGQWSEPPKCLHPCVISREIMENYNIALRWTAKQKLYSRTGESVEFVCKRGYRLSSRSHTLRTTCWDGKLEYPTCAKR
The experiment can be described thus: AUC; sedimentation velocity of full-length CFH, 20 °C, 40,000 rpm, Hepes buffer, 0.2 to 1.8 mg/ml, c(s) analysis in SEDFIT, proportions from peak integration; monomer to dimer.

B1: fully deglycosylated complement factor H (200 h PNGase F), P08603 19-1231 (natural protein)
chain: EDCNELPPRRNTEILTGSWSDQTYPEGTQAIYKCRPGYRSLGNVIMVCRKGEWVALNPLRKCQKRPCGHPGDTPFGTFTLTGGNVFEYGVKAVYTCNEGYQLLGEINYRECDTDGWTNDIPICEVVKCLPVTAPENGKIVSSAMEPDREYHFGQAVRFVCNSGYKIEGDEEMHCSDDGFWSKEKPKCVEISCKSPDVINGSPISQKIIYKENERFQYKCNMGYEYSERGDAVCTESGWRPLPSCEEKSCDNPYIPNGDYSPLRIKHRTGDEITYQCRNGFYPATRGNTAKCTSTGWIPAPRCTLKPCDYPDIKHGGLYHENMRRPYFPVAVGKYYSYYCDEHFETPSGSYWDHIHCTQDGWSPAVPCLRKCYFPYLENGYNQNYGRKFVQGKSIDVACHPGYALPKAQTTVTCMENGWSPTPRCIRVKTCSKSSIDIENGFISESQYTYALKEKAKYQCKLGYVTADGETSGSITCGKDGWSAQPTCIKSCDIPVFMNARTKNDFTWFKLNDTLDYECHDGYESNTGSTTGSIVCGYNGWSDLPICYERECELPKIDVHLVPDRKKDQYKVGEVLKFSCKPGFTIVGPNSVQCYHFGLSPDLPICKEQVQSCGPPPELLNGNVKEKTKEEYGHSEVVEYYCNPRFLMKGPNKIQCVDGEWTTLPVCIVEESTCGDIPELEHGWAQLSSPPYYYGDSVEFNCSESFTMIGHRSITCIHGVWTQLPQCVAIDKLKKCKSSNLIILEEHLKNKKEFDHNSNIRYRCRGKEGWIHTVCINGRWDPEVNCSMAQIQLCPPPPQIPNSHNMTTTLNYRDGEKVSVLCQENYLIQEGEEITCKDGRWQSIPLCVEKIPCSQPPQIEHGTINSSRSSQESYAHGTKLSYTCEGGFRISEENETTCYMGKWSSPPQCEGLPCKSPPEISHGVVAHMSDSYQYGEEVTYKCFEGFGIDGPAIAKCLGEKWSHPPSCIKTDCLSLPSFENAIPMGEKKDVYKAGEQVTYTCATYYKMDGASNVTCINSRWTGRPTCRDTSCVNPPTVQNAYIVSRQMSKYPSGERVRYQCRSPYEMFGDEEVMCLNGNWTEPPQCKDSTGKCGPPPPIDNGDITSFPLSVYAPASSVEYQCQNLYQLEGNKRITCRNGQWSEPPKCLHPCVISREIMENYNIALRWTAKQKLYSRTGESVEFVCKRGYRLSSRSHTLRTTCWDGKLEYPTCAKR
modifications: here or on the partner: N-linked glycans removed with PNGase F: eight, seven, six or five removed, leaving none, one, two or three glycans; N-linked glycans removed with PNGase F: eight, seven, six or five removed, leaving none, one, two or three glycans
In experiment [1], B1 yielded a proportion of dimer of 16% and a stoichiometry N of 2. The Kd in experiment [2] worked out at 11.5 µM.

B2: partially deglycosylated complement factor H (100 h PNGase F), P08603 19-1231 (natural protein)
chain: EDCNELPPRRNTEILTGSWSDQTYPEGTQAIYKCRPGYRSLGNVIMVCRKGEWVALNPLRKCQKRPCGHPGDTPFGTFTLTGGNVFEYGVKAVYTCNEGYQLLGEINYRECDTDGWTNDIPICEVVKCLPVTAPENGKIVSSAMEPDREYHFGQAVRFVCNSGYKIEGDEEMHCSDDGFWSKEKPKCVEISCKSPDVINGSPISQKIIYKENERFQYKCNMGYEYSERGDAVCTESGWRPLPSCEEKSCDNPYIPNGDYSPLRIKHRTGDEITYQCRNGFYPATRGNTAKCTSTGWIPAPRCTLKPCDYPDIKHGGLYHENMRRPYFPVAVGKYYSYYCDEHFETPSGSYWDHIHCTQDGWSPAVPCLRKCYFPYLENGYNQNYGRKFVQGKSIDVACHPGYALPKAQTTVTCMENGWSPTPRCIRVKTCSKSSIDIENGFISESQYTYALKEKAKYQCKLGYVTADGETSGSITCGKDGWSAQPTCIKSCDIPVFMNARTKNDFTWFKLNDTLDYECHDGYESNTGSTTGSIVCGYNGWSDLPICYERECELPKIDVHLVPDRKKDQYKVGEVLKFSCKPGFTIVGPNSVQCYHFGLSPDLPICKEQVQSCGPPPELLNGNVKEKTKEEYGHSEVVEYYCNPRFLMKGPNKIQCVDGEWTTLPVCIVEESTCGDIPELEHGWAQLSSPPYYYGDSVEFNCSESFTMIGHRSITCIHGVWTQLPQCVAIDKLKKCKSSNLIILEEHLKNKKEFDHNSNIRYRCRGKEGWIHTVCINGRWDPEVNCSMAQIQLCPPPPQIPNSHNMTTTLNYRDGEKVSVLCQENYLIQEGEEITCKDGRWQSIPLCVEKIPCSQPPQIEHGTINSSRSSQESYAHGTKLSYTCEGGFRISEENETTCYMGKWSSPPQCEGLPCKSPPEISHGVVAHMSDSYQYGEEVTYKCFEGFGIDGPAIAKCLGEKWSHPPSCIKTDCLSLPSFENAIPMGEKKDVYKAGEQVTYTCATYYKMDGASNVTCINSRWTGRPTCRDTSCVNPPTVQNAYIVSRQMSKYPSGERVRYQCRSPYEMFGDEEVMCLNGNWTEPPQCKDSTGKCGPPPPIDNGDITSFPLSVYAPASSVEYQCQNLYQLEGNKRITCRNGQWSEPPKCLHPCVISREIMENYNIALRWTAKQKLYSRTGESVEFVCKRGYRLSSRSHTLRTTCWDGKLEYPTCAKR
modifications: here or on the partner: N-linked glycans partly removed with PNGase F: forms with three to six glycan chains were present; N-linked glycans partly removed with PNGase F: forms with three to six glycan chains were present
On to B2, for which, in experiment [3], the proportion of dimer was 15% and the stoichiometry N was determined as 2.
